Assay results from patent US20090053213A1.

Tests used:
human GM-CSF (human) [1] = target: human GM-CSF (human) (UniProt P04141); assay: cell-based or functional assay
[2] = target: macaca mulatta (rhesus) GM-CSF (Macaca mulatta (rhesus)); assay: cell-based or functional assay
human GM-CSF (human) [3] = target: human GM-CSF (human) (UniProt P04141); assay: FACS receptor inhibition assay: inhibition of binding of 0.5 µg/ml biotinylated GM-CSF to GM-CSF receptor alpha on CHO-GMRa#11 cells
[4] = target: human GM-CSF receptor alpha chain (human) (UniProt P15509); assay: FACS on CHO-GMRa#11 cells, MAB1006 at 1 µg/ml, R-PE anti-mouse secondary, FL2 channel
human GM-CSF receptor alpha chain (human), sequence (P15509 23-400): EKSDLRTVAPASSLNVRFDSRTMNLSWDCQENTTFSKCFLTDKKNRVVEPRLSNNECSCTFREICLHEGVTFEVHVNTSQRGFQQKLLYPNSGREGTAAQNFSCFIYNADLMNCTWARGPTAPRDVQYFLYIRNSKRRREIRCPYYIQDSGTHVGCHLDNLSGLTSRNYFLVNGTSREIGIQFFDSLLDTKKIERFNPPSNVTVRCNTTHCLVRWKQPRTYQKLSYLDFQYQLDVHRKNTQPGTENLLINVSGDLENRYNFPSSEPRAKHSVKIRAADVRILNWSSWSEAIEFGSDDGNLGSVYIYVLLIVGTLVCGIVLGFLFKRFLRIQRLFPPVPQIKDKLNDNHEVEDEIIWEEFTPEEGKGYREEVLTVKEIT

human GM-CSF (human), sequence (P04141 18-144): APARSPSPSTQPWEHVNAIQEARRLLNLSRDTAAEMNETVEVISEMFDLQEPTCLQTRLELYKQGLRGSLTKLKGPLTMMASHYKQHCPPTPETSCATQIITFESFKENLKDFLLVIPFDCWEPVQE

Row | Substance | IC50 (pM) in TF-1 proliferation assay, human GM-CSF 0.25 ng/ml (human GM-CSF (human) [1]) [pM] | IC50 (pM) in TF-1 proliferation assay, human GM-CSF (E. coli) (human GM-CSF (human) [1]) [pM] | IC50 (pM) in TF-1 proliferation assay, human GM-CSF (HEK293) (human GM-CSF (human) [1]) [pM] | IC50 x-fold improved compared to BVD2-21C11, TF-1 proliferation assay (human GM-CSF (human) [1]) [fold] | IC50 (pM) in TF-1 proliferation assay, macaca GM-CSF (HEK293) [2] [pM] | % inhibition at 5 µg/ml antibody (human GM-CSF (human) [3]) [%] | median fluorescence value (MFL value) [4]
1 | MAB215 (antibody) | 4320 | 625 | 54 | 1.5 | 190 | 50 | –
2 | murine IgG MAB1006 (antibody) | – | – | – | – | – | – | 157
